Experimental data taken from the supplement of paper PMC6757056.
± gives the standard deviation of the averaged measurements.

B1: library; a variant is named by its letters at N, in order (parent)
chain: GCUGUCACCGGUGCUUGGUACGUUAUAUUCAGCCGGUCUGAUGAGUCUNNNNNNAGACGAAACAGC

Columns and labels:
(6R,S)-folinic acid [1] = variants of: B1; assay: normalized RNA/DNA level without ligand (relative to sTRSVctl = 100) (log10 (% of sTRSVctl)); HEK293T overexpressing SLC46A1; higher = less ribozyme self-cleavage, higher mRNA level; conditions: without (6R,S)-folinic acid; ligand present: no
How it was run: (§1)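 For each 6-well well, 4 µg of library plasmid encoding mCherry-linked ribozyme switches, or eGFP-linked ones in some ligand experiments, was transfected into HEK293T. Any ligand was added 1 h before transfection, and RNA was extracted with EDTA 72 h after it, then reverse-transcribed, amplified, barcoded and sequenced. RNA level was obtained by dividing RNA reads by DNA reads, normalizing to a spiked-in non-cleaving sequence or to the top sequences, then scaling and log-transforming. The top set was 25 sequences, scaling was ×100 with log10, and ≥100 DNA reads were required.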

(6R,S)-folinic acid [2] = variants of: B1; assay: normalized RNA/DNA level with ligand (relative to sTRSVctl = 100) (log10 (% of sTRSVctl)); HEK293T overexpressing SLC46A1; ligand concentration (+) RNA-Seq: 6 mM; higher = less ribozyme self-cleavage, higher mRNA level; conditions: with (6R,S)-folinic acid; ligand present: yes
How it was run: as §1

Row | Variant | normalized RNA/DNA level without ligand (log10) ((6R,S)-folinic acid [1]) | normalized RNA/DNA level with ligand (log10) ((6R,S)-folinic acid [2])
1 | GCUGUCACCGGUGCUUGGUACGUUAUAUUCAGCCGGUCUGAUGAGUCUACGUCUAGACGAAACAGC | 2.04 ± 0.028 | 2.025 ± 0.013
2 | GCUGUCACCGGUGCUUGGUACGUUAUAUUCAGCCGGUCUGAUGAGUCUCCGUGAAGACGAAACAGC | 2.03 ± 0.021 | 2.05 ± 0.037
3 | GCUGUCACCGGUGCUUGGUACGUUAUAUUCAGCCGGUCUGAUGAGUCUGCGUGAAGACGAAACAGC | 1.999 ± 0.015 | 2.03 ± 0.038
4 | GCUGUCACCGGUGCUUGGUACGUUAUAUUCAGCCGGUCUGAUGAGUCUUCGUGAAGACGAAACAGC | 1.955 ± 0.014 | 2.009 ± 0.0081
5 | GCUGUCACCGGUGCUUGGUACGUUAUAUUCAGCCGGUCUGAUGAGUCUCCGUGCAGACGAAACAGC | 2.03 ± 0.048 | 1.99 ± 0.041
6 | GCUGUCACCGGUGCUUGGUACGUUAUAUUCAGCCGGUCUGAUGAGUCUGCGUGCAGACGAAACAGC | 2.043 ± 0.019 | 2.03 ± 0.038
7 | GCUGUCACCGGUGCUUGGUACGUUAUAUUCAGCCGGUCUGAUGAGUCUUCGUGCAGACGAAACAGC | 2.074 ± 0.015 | 2.055 ± 0.0071
8 | GCUGUCACCGGUGCUUGGUACGUUAUAUUCAGCCGGUCUGAUGAGUCUACGUGCAGACGAAACAGC | 2.026 ± 0.0053 | 2.02 ± 0.055
9 | GCUGUCACCGGUGCUUGGUACGUUAUAUUCAGCCGGUCUGAUGAGUCUCCGUGGAGACGAAACAGC | 2.022 ± 0.02 | 2.06 ± 0.023
10 | GCUGUCACCGGUGCUUGGUACGUUAUAUUCAGCCGGUCUGAUGAGUCUUCGUGGAGACGAAACAGC | 1.947 ± 0.0075 | 2.02 ± 0.041
11 | GCUGUCACCGGUGCUUGGUACGUUAUAUUCAGCCGGUCUGAUGAGUCUACGUGGAGACGAAACAGC | 1.954 ± 0.0043 | 2.05 ± 0.025
12 | GCUGUCACCGGUGCUUGGUACGUUAUAUUCAGCCGGUCUGAUGAGUCUCCGUGUAGACGAAACAGC | 2.039 ± 0.0037 | 2.048 ± 0.0091
13 | GCUGUCACCGGUGCUUGGUACGUUAUAUUCAGCCGGUCUGAUGAGUCUGCGUGUAGACGAAACAGC | 1.974 ± 0.0053 | 2.04 ± 0.053
14 | GCUGUCACCGGUGCUUGGUACGUUAUAUUCAGCCGGUCUGAUGAGUCUUCGUGUAGACGAAACAGC | 1.998 ± 0.0023 | 2.029 ± 0.0088
15 | GCUGUCACCGGUGCUUGGUACGUUAUAUUCAGCCGGUCUGAUGAGUCUACGUGUAGACGAAACAGC | 2.06 ± 0.028 | 2.06 ± 0.024
16 | GCUGUCACCGGUGCUUGGUACGUUAUAUUCAGCCGGUCUGAUGAGUCUCCGUUAAGACGAAACAGC | 2.005 ± 0.0026 | 1.97 ± 0.055
17 | GCUGUCACCGGUGCUUGGUACGUUAUAUUCAGCCGGUCUGAUGAGUCUGCGUUAAGACGAAACAGC | 2.003 ± 0.0039 | 2.02 ± 0.036
18 | GCUGUCACCGGUGCUUGGUACGUUAUAUUCAGCCGGUCUGAUGAGUCUUCGUUAAGACGAAACAGC | 2.009 ± 0.0058 | 2.04 ± 0.038
19 | GCUGUCACCGGUGCUUGGUACGUUAUAUUCAGCCGGUCUGAUGAGUCUCCGUUCAGACGAAACAGC | 2.048 ± 0.0038 | 2.03 ± 0.071
20 | GCUGUCACCGGUGCUUGGUACGUUAUAUUCAGCCGGUCUGAUGAGUCUGCGUUCAGACGAAACAGC | 2.017 ± 0.0029 | 2.034 ± 0.02
21 | GCUGUCACCGGUGCUUGGUACGUUAUAUUCAGCCGGUCUGAUGAGUCUUCGUUCAGACGAAACAGC | 2.0303 ± 0.002 | 2.01 ± 0.034

Row | Variant | normalized RNA/DNA level without ligand (log10) ((6R,S)-folinic acid [1]) | normalized RNA/DNA level with ligand (log10) ((6R,S)-folinic acid [2])
22 | GCUGUCACCGGUGCUUGGUACGUUAUAUUCAGCCGGUCUGAUGAGUCUACGUUCAGACGAAACAGC | 2.07 ± 0.022 | 2.02 ± 0.037
23 | GCUGUCACCGGUGCUUGGUACGUUAUAUUCAGCCGGUCUGAUGAGUCUCCGUUGAGACGAAACAGC | 1.99 ± 0.024 | 2.04 ± 0.044
24 | GCUGUCACCGGUGCUUGGUACGUUAUAUUCAGCCGGUCUGAUGAGUCUGCGUUGAGACGAAACAGC | 2.009 ± 0.0022 | 2.05 ± 0.041
25 | GCUGUCACCGGUGCUUGGUACGUUAUAUUCAGCCGGUCUGAUGAGUCUACGUUGAGACGAAACAGC | 1.936 ± 0.0063 | 2.03 ± 0.043
26 | GCUGUCACCGGUGCUUGGUACGUUAUAUUCAGCCGGUCUGAUGAGUCUCCGUUUAGACGAAACAGC | 2.037 ± 0.0047 | 2.013 ± 0.02
27 | GCUGUCACCGGUGCUUGGUACGUUAUAUUCAGCCGGUCUGAUGAGUCUGCGUUUAGACGAAACAGC | 2.037 ± 0.017 | 2.04 ± 0.022
28 | GCUGUCACCGGUGCUUGGUACGUUAUAUUCAGCCGGUCUGAUGAGUCUUCGUUUAGACGAAACAGC | 1.99 ± 0.03 | 2.028 ± 0.0051
29 | GCUGUCACCGGUGCUUGGUACGUUAUAUUCAGCCGGUCUGAUGAGUCUCCUAAAAGACGAAACAGC | 1.9908 ± 0.0014 | 2.01 ± 0.028
30 | GCUGUCACCGGUGCUUGGUACGUUAUAUUCAGCCGGUCUGAUGAGUCUGCUAAAAGACGAAACAGC | 1.992 ± 0.009 | 2.02 ± 0.028
31 | GCUGUCACCGGUGCUUGGUACGUUAUAUUCAGCCGGUCUGAUGAGUCUCCUAACAGACGAAACAGC | 2.041 ± 0.0058 | 2.038 ± 0.017
32 | GCUGUCACCGGUGCUUGGUACGUUAUAUUCAGCCGGUCUGAUGAGUCUGCUAACAGACGAAACAGC | 1.975 ± 0.015 | 2.015 ± 0.007
33 | GCUGUCACCGGUGCUUGGUACGUUAUAUUCAGCCGGUCUGAUGAGUCUUCUAACAGACGAAACAGC | 2.013 ± 0.0071 | 2.031 ± 0.018
34 | GCUGUCACCGGUGCUUGGUACGUUAUAUUCAGCCGGUCUGAUGAGUCUGCUAAGAGACGAAACAGC | 1.968 ± 0.003 | 2.024 ± 0.016
35 | GCUGUCACCGGUGCUUGGUACGUUAUAUUCAGCCGGUCUGAUGAGUCUUCUAAGAGACGAAACAGC | 1.815 ± 0.014 | 2 ± 0.045
36 | GCUGUCACCGGUGCUUGGUACGUUAUAUUCAGCCGGUCUGAUGAGUCUUCUAAUAGACGAAACAGC | 1.974 ± 0.0063 | 2.005 ± 0.0055
37 | GCUGUCACCGGUGCUUGGUACGUUAUAUUCAGCCGGUCUGAUGAGUCUACUAAUAGACGAAACAGC | 1.985 ± 0.007 | 2.01 ± 0.03
38 | GCUGUCACCGGUGCUUGGUACGUUAUAUUCAGCCGGUCUGAUGAGUCUUCUACAAGACGAAACAGC | 2.057 ± 0.0079 | 2.0488 ± 0.002
39 | GCUGUCACCGGUGCUUGGUACGUUAUAUUCAGCCGGUCUGAUGAGUCUACUACAAGACGAAACAGC | 1.99 ± 0.021 | 2.01 ± 0.021
40 | GCUGUCACCGGUGCUUGGUACGUUAUAUUCAGCCGGUCUGAUGAGUCUCCUACCAGACGAAACAGC | 2.0594 ± 0.00016 | 2.04 ± 0.041
41 | GCUGUCACCGGUGCUUGGUACGUUAUAUUCAGCCGGUCUGAUGAGUCUGCUACCAGACGAAACAGC | 2.06 ± 0.023 | 2.05 ± 0.033
